The results in this text go back to the supplement of paper PMC11780869.

The subject of this data set is Bacillus subtilis. Nature of the data set: cleaved RNA product abundance (RNA/gDNA barcode ratio) relative to median wild-type variant (ratio to wild type); higher = more accumulation of the downstream cleavage product. The gist of the method:
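Sequencing of barcodes from gel-selected, reverse-transcribed cleaved RNA and from genomic DNA, with UMI collapsing, yielded a per-construct RNA:gDNA ratio. Scaled to the median construct with the unmutated site, this ratio is the cleaved product abundance. The barcoded reporters (truncated aprE or tetM mRNAs with mutagenized RNase Y cleavage-site windows) were integrated into the B. subtilis chromosome, and cultures grew in LB at 37°C from OD600 0.0003 to 0.3.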

[1] abbreviates: experiment (reporter, strain, medium): exp 8a: truncated aprE reporter, strain BJT201 with 2% xylose (RNase J1 expressed), cleavage site: glnRA (positions -5 to +31 mutated).
Setting [2] is: experiment (reporter, strain, medium): exp 2b: truncated aprE reporter, strain BJT200, cleavage site: cggR-gapA (positions -7 to +36 mutated).
Setting [3] is: experiment (reporter, strain, medium): exp 4a: truncated aprE reporter, strain BJT201 with 2% xylose (RNase J1 expressed), cleavage site: cggR-gapA (positions -7 to +36 mutated).

As for “CGACATGTCCCGCTTCTTTCATTACTCCGTTAGCAACTGTTTTGCTATATACATTTACCTTTTAAGAGGAGGAAT”, under setting [1], the “cleaved RNA product abundance” value is 1.1.

Turning to “ACAGACGAAGGAGCCGCAAAGAAGATATTAAGGTATGAATAATCTCTCAATATAAATATCTCTCACTTATTTAAA”, the “cleaved RNA product abundance” value under setting [2] came to 0.105. On to “CGACATGTCCCGCTTCTTTCATTAATCCGTTAACAACTGTTTTGCTATACACATTTACCTTTTAAGAGGAGGAAT”, for which the “cleaved RNA product abundance” value under setting [1] turned out to be 0.162. With “ACAGACGAAGGAGCCGCAAAAAAGTTATTAAGGGAAGAATAATCCCTCAATATAAATATCTCTCACTTATTTAAA”, the “cleaved RNA product abundance” value runs as follows: under setting [2], 0.426; under setting [3], 0.403. Take “ACAGACGAAGGAGCCGCAAAGAAGTTATTAAGGGATGAATTATCCCTGAATATAAATATCTCTCACTTATTTAAA”: the “cleaved RNA product abundance” value under setting [2] was 0.396.

As for “ACAGACGAAGGAGCCGCAAAGAAGTTATTAAGGGCTGAATAATCCCTTAATATAAATATCTCTCACTTATTTAAA”, the “cleaved RNA product abundance” value under setting [3] came to 0.626.

Regarding “ACAGACGAAGGAGCCGCAAAGAAGTCATTAAGGGACGAATAATCCCTCAATATAAATATCTCTCACTTATTTAAA”, the “cleaved RNA product abundance” value under setting [3] amounted to 0.154.

As for “CGACATGTCCCGCTTCTTTCATTACTCCGTTAGCAACTGTTTTGGTATATACATTTACCTTTTAAGAGGAGGAAT”, the “cleaved RNA product abundance” value under setting [1] was found to be 0.278.

As for “ACAGACGAAGGAGCCGCAAAGACGTTATTAATGGATGAATAATCCTTCAATATAAATATCTCTCACTTATTTAAA”, under setting [3], the “cleaved RNA product abundance” value came out at 0.23. For the sequence “CGACATGTCCCGCTTCTTTCATTAATTCGTTAGCAACTGTTTTGCTATATACATATACCTTTTAAGAGGAGGAAT”, the “cleaved RNA product abundance” value under setting [1] worked out at 0.859.

As to “CGACATGTCCCGCTTCTTTCATTAATCCGTTAGCAACTGATTTGCTATATACATTTACTTTTTAAGAGGAGGAAT”, the “cleaved RNA product abundance” value under setting [1] was 1.06. Take “ACAGACGAAGGAGCCGCAAAGAAGTTATTAAGGGATGAATAATGTCTCAATATAAATATCTCTCACTTATTTAAA”: the “cleaved RNA product abundance” value under setting [3] worked out at 0.0823.

Turning to “ACAGACGAAGGAGCCGCAAAGAAGTTATTAAGGTATGAATAATCCCTCATTATAAATATCTCTCACTTATTTAAA”, the “cleaved RNA product abundance” value under setting [3] was 0.107. As for “ACAGACGAAGGAGCCGCAAAGAAGTTATTAAGGGATGAATAATCCCTCAATATAAATATCTCTCACTTATTAAAG”, the “cleaved RNA product abundance” value came out at 0.94 under setting [2] and 0.971 under setting [3]. “ACAGACGAAGGAGCCGCAAAGAAGTTATTAAGAGATGAGTAATCCCTCAATATAAATATCTCTCACTTATTTAAA”: the “cleaved RNA product abundance” value under setting [3] stood at 0.241.

Regarding “ACAGACGAAGGAGCCGCAAAGAAGTTATTAAGGGATGAATAACCCCTCAAAATAAATATCTCTCACTTATTTAAA”, the “cleaved RNA product abundance” value under setting [2] was 0.208.

With “ACAGACGAAGGAGCCGCAAAGAAGATATTAAGGGATGTATAATCCCTCAATATAAATATCTCTCACTTATTTAAA”, under setting [3], the “cleaved RNA product abundance” value was 0.603.

Regarding “ACAGACGAAGGAGCCGCAAAGAAGTTATTAACGGATGAATAATCACTCAATATAAATATCTCTCACTTATTTAAA”, the “cleaved RNA product abundance” value runs as follows: under setting [2], 0.0895; under setting [3], 0.106. On the same counts, the results for “ACAGACGAAGGAGCCGCAAAGTAGTTATTAAGGCATGAATAATCCCTCAATATAAATATCTCTCACTTATTTAAA” are 0.101 and 0.124. For “ACAGACGAAGGAGCCGCAAAGAAGTTAATAAGGGAAGAATAATCCCTCAATATAAATATCTCTCACTTATTTAAA”, in that order: 0.135 and 0.17. On to “ACAGACGAAGGAGCCGCAAAGAAGTAATTAAGGGATGAATAATCCCTCAATATAAATTTCTCTCACTTATTTAAA”, for which the “cleaved RNA product abundance” value under setting [3] is 0.122.

Take “ACAGACGAAGGAGCCGCAAAGCAGTTATTAAGGGATGAATAATCCCTCAAAATAAATATCTCTCACTTATTTAAA”: the “cleaved RNA product abundance” value under setting [3] was found to be 0.468.

For “ACAGACGAAGGAGCCGCAAAGAAGTTATTAAAGGATGAATAATCCCTCAACATAAATATCTCTCACTTATTTAAA”, the “cleaved RNA product abundance” value under setting [3] stood at 0.265. Take “CGACATGTCCCGCTTCTTTCATTAATCCGTCAGCAACTGTTTTGTTATATACATTTACCTTTTAAGAGGAGGAAT”: the “cleaved RNA product abundance” value under setting [1] was determined as 0.485.

With “ACAGACGAAGGAGCCGCAAAGAATTTATTAAGGGATGAATAATCCCTCAATATAAATATCTCTCACTTATTAAAG”, under setting [3], the “cleaved RNA product abundance” value amounted to 0.836.

Consider “ACAGACGAAGGAGCCGCAAAGAAGTTATGAAGGGATGAATTATCCCTCAATATAAATATCTCTCACTTATTTAAA”, for which the “cleaved RNA product abundance” value amounted to 0.232 under setting [2] and 0.343 under setting [3].

Turning to “CGACATGTCCCGCTTCTTTCATTAACCCGTTAGCAACTGTTTTGCTATATACATTTACCATTTAAGAGGAGGAAT”, the “cleaved RNA product abundance” value under setting [1] came to 1.41.

For the sequence “ACAGACGAAGGAGCCGCAAAAAAGTTATTAAGGGATGAATAATCCCTCATTATAAATATCTCTCACTTATTTAAA”, the “cleaved RNA product abundance” value was 0.293 under setting [2] and 0.417 under setting [3]. In the case of “CGACATGTCCCGCTTCTTTCATTAATCAGTTAGTAACTGTTTTGCTATATACATTTACCTTTTAAGAGGAGGAAT”, the “cleaved RNA product abundance” value under setting [1] came to 0.421. Regarding “CGACATGTCCCGCTTCTTTCATTAATGCGTTAGCAACTGTTTTGCTATATACATTTACATTTTAAGAGGAGGAAT”, the “cleaved RNA product abundance” value under setting [1] was determined as 0.652. As for “ACAGACGAAGGAGCCGCAAAGAAGTTATTAACGGATGAATAATCCCTCAATCTAAATATCTCTCACTTATTTAAA”, under setting [3], the “cleaved RNA product abundance” value was determined as 0.102.

Regarding “ACAGACGAAGGAGCCGCAATGAAATTATTAAGGGATGAATAATCCCTCAATATAAATATCTCTCACTTATTTAAA”, the “cleaved RNA product abundance” value reads like this: under setting [2], 0.716; under setting [3], 0.875.

As for “ACAGACGAAGGAGCCGCAAAGAAGTTATTAAGGGATTAATAATCCCCCAATATAAATATCTCTCACTTATTTAAA”, the “cleaved RNA product abundance” value under setting [3] came out at 0.272. As to “CGACATGTCCCGCTTCTTTCATTATTCCGTTAGCAACTGTTTTGCTATAAACATTTACCTTTTAAGAGGAGGAAT”, the “cleaved RNA product abundance” value under setting [1] amounted to 0.851.

As for “ACAGACGAAGGAGCCGCACAGAAGTTATTAAGGGATGAATAATCCCTCAAAATAAATATCTCTCACTTATTTAAA”, the “cleaved RNA product abundance” value under setting [3] is 0.337. On to “ACAGACGAAGGAGCCGCAAAGAAGTGATTAAGCGATGAATAATCCCTCAATATAAATATCTCTCACTTATTTAAA”, for which the “cleaved RNA product abundance” value was determined as 0.115 under setting [2] and 0.131 under setting [3]. In the case of “ACAGACGAAGGAGCCGCAAAGAAGTTATTAAGGGATGAATAATGCCTCAATAGAAATATCTCTCACTTATTTAAA”, under setting [3], the “cleaved RNA product abundance” value was 0.0653. For the sequence “ACAGACGAAGGAGCCGCAAAGAACTTATTAAGGGATGAATAACCCCTCAATATAAATATCTCTCACTTATTTAAA”, the “cleaved RNA product abundance” value under setting [2] amounted to 0.235. For “ACAGACGAAGGAGCCGCAAAGAAGTTATTAAGGGATGAATAATCACTCTATATAAATATCTCTCACTTATTTAAA”, the “cleaved RNA product abundance” value is 0.0929 under setting [2] and 0.155 under setting [3]. Regarding “ACAGACGAAGGAGCCGCAAAGAAGTTATTAAGGAATGAATAATCCCTCAATATATATATCTCTCACTTATTTAAA”, the “cleaved RNA product abundance” value by setting is: under setting [2], 0.0862; under setting [3], 0.149. On to “ACAGACGAAGGAGCCGCAAAGAAGTTAATAAGGGATTAATAATCCCTCAATATAAATATCTCTCACTTATTTAAA”, for which the “cleaved RNA product abundance” value is, setting by setting: under setting [2], 0.218; under setting [3], 0.313. “ACAGACGAAGGAGCCGCAAAGAAGTTATTATCGGATGAATAATCCCTCAATATAAATATCTCTCACTTATTTAAA”: the “cleaved RNA product abundance” value under setting [3] stood at 0.178. “ACAGACGAAGGAGCCGCAAAAAAGTTATTAAGGGATGAATAATCCCGCAATATAAATATCTCTCACTTATTTAAA”: the “cleaved RNA product abundance” value under setting [2] worked out at 0.141 and the “cleaved RNA product abundance” value under setting [3] was found to be 0.231. Turning to “ACAGACGAAGGAGCCGCAAAGAAGTTAATAAGAGATGAATAATCCCTCAATATAAATATCTCTCACTTATTTAAA”, the “cleaved RNA product abundance” value under setting [3] amounted to 0.133. Regarding “ACAGACGAAGGAGCCGCAAAGAAGTTATTAAGGGATGAATAATTCATCAATATAAATATCTCTCACTTATTTAAA”, under setting [3], the “cleaved RNA product abundance” value amounted to 0.201. With “ACAGACGAAGGAGCCGCAAAGAAGTTATTAAGGGATGTATAAACCCTCAATATAAATATCTCTCACTTATTTAAA”, the “cleaved RNA product abundance” value amounted to 0.448 under setting [2] and 0.592 under setting [3].

For the sequence “ACAGACGAAGGAGCCGCAAAGAAGTTATTAAGGGATGAATAACCCTTCAATATAAATATCTCTCACTTATTTAAA”, the “cleaved RNA product abundance” value under setting [3] turned out to be 0.346. On to “ACAGACGAAGGAGCCGCAAGGAAGTTATTAAGGGATGAAAAATCCCTCAATATAAATATCTCTCACTTATTTAAA”, for which the “cleaved RNA product abundance” value under setting [3] stood at 0.663. Regarding “CGACATGTCCCGCTTCTTTCATTAATCCGTTAGCAACTTTTTGGCTATATACATTTACCTTTTAAGAGGAGGAAT”, the “cleaved RNA product abundance” value under setting [1] is 0.563.

As to “ACAGACGAAGGAGCCGCAAAGAAGTAATTAAGAGATGAATAATCCCTCAATATAAATATCTCTCACTTATTTAAA”, the “cleaved RNA product abundance” value is 0.0957 under setting [2] and 0.141 under setting [3]. As for “ACAGACGAAGGAGCCGCAAAGATGTTATTAAGGGATGAATGATCCCTCAATATAAATATCTCTCACTTATTTAAA”, the “cleaved RNA product abundance” value under setting [3] came out at 0.51. Turning to “ACAGACGAAGGAGCCGCAAAGAAGTTATCAATGGATGAATAATCCCTCAATATAAATATCTCTCACTTATTTAAA”, the “cleaved RNA product abundance” value under setting [3] is 0.146. As for “CGACATGTCCCGCTTCTTTCATTAATCCGTTAGCAACTTTTGTGCTATATACATTTACCTTTTAAGAGGAGGAAT”, the “cleaved RNA product abundance” value under setting [1] came to 1.05. In the case of “ACAGACGAAGGAGCCGCAAAAAAGTTATTAAGAGATGAATAATCCGTCAATATAAATATCTCTCACTTATTTAAA”, the “cleaved RNA product abundance” value under setting [3] came out at 0.0894. As to “CGACATGTCCCGCTTCTTTCATTAATCCGTTAGCAACTGTTTAGCTATATACATTTAGCTTTTAAGAGGAGGAAT”, under setting [1], the “cleaved RNA product abundance” value turned out to be 0.608.
